According to patent publication US20110097341A1 (Pfizer, published 2011):
Like-named read-outs stand apart in the source and are kept apart here.

What was measured:
Assay in all cases: cell-based or functional assay
rat NGF [1] = biological target: T1, rat NGF (rat, UniProt P25427 122-241)
human NGF = human NGF (human, UniProt P01138 122-241)
rat NGF [2] = biological target: T1, rat NGF; remark: listed apart in the source
rat NGF [3] = biological target: T1, rat NGF; remark: listed apart in the source

Chain of human NGF (P01138 122-241 limits assumed): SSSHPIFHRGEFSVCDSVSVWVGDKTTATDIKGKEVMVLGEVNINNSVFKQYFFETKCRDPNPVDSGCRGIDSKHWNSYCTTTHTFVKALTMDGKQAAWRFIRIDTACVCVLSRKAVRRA
T1 sequence (P25427 122-241 limits assumed): as the sequence (P01138 122-241 limits assumed) above, with S3T, I6V, R9M, M37T, D60A, D65E, M92T, G94D, V117A, A120G counted along it

Molecule | IC50 (1.5 pM NGF), NGF-dependent survival of mouse E13.5 trigeminal neurons (rat NGF [1]) | IC50 (15 pM NGF), NGF-dependent survival of mouse E13.5 trigeminal neurons (rat NGF [1]) | IC50 (in the presence of 1.5 pM NGF), NGF-dependent survival of mouse E13.5 trigeminal neurons (human NGF) | IC50 (in the presence of 15 pM NGF), NGF-dependent survival of mouse E13.5 trigeminal neurons (human NGF) | concentration that totally blocked NGF-elicited survival of trigeminal neurons (human NGF) | IC50 (1.5 pM NGF), NGF-dependent survival of mouse E13.5 trigeminal neurons (rat NGF [2]) | IC50 (15 pM NGF), NGF-dependent survival of mouse E13.5 trigeminal neurons (rat NGF [2]) | IC50 in the presence of 15 pM rat NGF, trigeminal neuron survival (rat NGF [3])
mouse antibody 911 (Fab) | 34.6 pM | 161 pM | 63.5 pM | 322 pM | 20 nM | – | – | –
3C (Fab, V domains shown) VH: QVQLQESGPGLVKPSETLSLTCTVSGFSLIGYDLNWIRQPPGKGLEWIGIIWGDGTTDYNSAVKSRVTISKDTSKNQFSLKLSSVTAADTAVYYCARGGYWYATSYYFDYWGQGTLVTVS VL: DIQMTQSPSSLSASVGDRVTITCRASQSISNNLNWYQQKPGKAPKLLIYYTSRFHSGVPSRFSGSGSGTDFTFTISSLQPEDIATYYCQQERTLPYTFGQGTKLEIKR | – | – | 5.6 pM | 80.9 pM | – | 6 pM | 31.6 pM | –
Fab E3 (Fab, V domains shown) VH: QVQLQESGPGLVKPSETLSLTCTVSGFSLIGYDLNWIRQPPGKGLEWIGIIWGDGTTDYNSAVKSRVTISKDTSKNQFSLKLSSVTAADTAVYYCARGGYWYATSYYFDYWGQGTLVTVS VL: DIQMTQSPSSLSASVGDRVTITCRASQSISNNLNWYQQKPGKAPKLLIYYTSRFHSGVPSRFSGSGSGTDFTFTISSLQPEDIATYYCQQEHTLPYTFGQGTKLEIKR | – | – | < 1.2 pM | < 21 pM | – | < 1.3 pM | < 8.3 pM | ~31.6 pM
H19-L129 (Fab, V domains shown) VH: QVQLQESGPGLVKPSETLSLTCTVSGFSLIGYDLNWIRQPPGKGLEWIGIIWGDGTTDYNSAVKSRVTISKDTSKNQFSLKLSSVTAADTAVYYCARGGYYYGTSYYFDYWGQGTLVTVS VL: DIQMTQSPSSLSASVGDRVTITCRASQSISNNLNWYQQKPGKAPKLLIYYTSRFHSGVPSRFSGSGSGTDFTFTISSLQPEDIATYYCQQSKTLPYTFGQGTKLEIKR | – | – | 9.6 pM | 60.1 pM | – | 6 pM | 31 pM | –
8L2-6D5 (Fab, V domains shown) VH: QVQLQESGPGLVKPSETLSLTCTVSGFSLIGYDINWIRQPPGKGLEWIGMIWGDGTTDYNSALKSRVTISKDTSKNQFSLKLSSVTAADTAVYYCARGGYYYGTSYYFDYWGQGTLVTVS VL: DIQMTQSPSSLSASVGDRVTITCRASQDISNHLNWYQQKPGKAPKLLIYYISRFHSGVPSRFSGSGSGTDFTFTISSLQPEDIATYYCQQSKTLPYTFGQGTKLEIKR | – | – | 462 pM | 1580 pM | – | 169 pM | 730 pM | –
